# Test results published in the nanobody polyreactivity screen of Harvey et al. (2022).
# Assay: yeast display, Sf9 membrane polyspecificity reagent, FACS + sequencing; frameworks hold sequencing errors
# Summary of the method: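 Nanobodies came from a synthetic yeast display library in Saccharomyces cerevisiae BJ5465, induced with galactose for 36–48 hours and stained for 1 hour at 4 °C with 10% biotinylated, detergent-solubilized Sf9 membrane reagent. Cells were enriched on streptavidin microbeads and then FACS-sorted, with low and high (top ~1%) gates set on anti-HA fluorescence for expression and streptavidin fluorescence for reagent binding. Each polyreactivity label reflects the gate a clone came from. Genes were amplified by colony PCR, sequenced by MiSeq 2 × 250 and filtered by CDR length.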
row,Sequence,polyreactivity (PSR sort gate)
1,QVQLVESGGGLVQSGGSLRLSCAASGRIFFYYAMGGYRQAPGKERELVATIRDGGGTTYYADSVKRRFTISIDNAKNTVYLQMNSLKTDDTAFYYCNVDVWRKYYYWGQGTQVTVSS,low polyreactivity
2,QVQLVESGGGLVQSGGSLRLSCAASGRIFYYNAMGWYRQAPGKERELVAAITSSSGSSTYYADSVKGRFTISRDNAKNTVYLQMNSLKPEDTAVYYCAADATFIIRYLSRSDYWGQGTQVTVSS,low polyreactivity
3,QVQLVESGGGLVQSGGSLRLSCAASGRIIKSYAMGRYRQAPGKERELVAAISRSGGRTYYADSVKGRFSISRDNAKNTVYLQMISLKPEDTAVYYCAATTFVAPSWGQGTQVTVSS,low polyreactivity
4,QVQLVESGGGLVQSGGSLRLSCAASGRTFGYYDMGWYRQAPGKERELVASITRRGGSTYYADSVKGRFTISRDNAKNTVYLQMNSLKPEDTAGYYCAARYKARYEPARYDYWGQGTQVTVSS,high polyreactivity
5,QVQLVESGGGLVQSGGSLRLSCAASGRTFSYYAMGWYRQAPGKERELVAAISSGGSTNYADSVKGRFTISRDNAKNTVYLQMNSLKPEDTEVYYCATSSIWGSGRVRWVTYYYWGQGTQVTVSS,low polyreactivity
6,QVQLVESGGGLVQSGGSLRLSCAASGRTFYDNVMGWYRQAPGKERELVAAISSGGSTNYADSVKGRFTISRDNAKNTVYLQMNSLKPEDTAFYYCATIGGGGWAYEYWGQGTQVTVSS,low polyreactivity
7,QVQLVESGGGLVQSGGSLRLSCAASGRTFYGNAMGWYRQAPGKERELVAAITSSGGSTYYADSVKGRFTISRDNAKNTVYLQMNSLKPEDNAVYYCAAYTYLEDFESWGQGTQVTVSS,high polyreactivity
8,QVQLVESGGGLVQSGGSLRLSCAASGRTLGYNAMGWYRQAPGKERELVASINSGVSTNYADSVKGRFTISRDNAKNTVYLQMNSLKPEDTAVYYCAAEKYGRGDGREGWEYDYWGQGTQVTVSS,low polyreactivity
9,QVQLVESGGGLVQSGGSLRLSCAASGSIFDGYAMGWYRQAPGKERELVAAISKGGTRTYYADSVKGRFTISRDNAKNTVYLQMNSLKPEDTAVYYGNAYFRREPDDGDYDYWGQGTQVTVSS,high polyreactivity
10,QVQLVESGGGLVQSGGSLRLSCAASGSIFTPYSMGWYRQAPGKERELVAGISYRGGTTYYADSVKGRFTISRDNAKNTVYLQMNSLKPEDYAVYYCAAAASSPGGWFYYWGQGTQVTVSS,high polyreactivity
11,QVQLVESGGGLVQSGGSLRLSCAASGSTFSINAMGWYRQAPGKERELVAAITWRGVRTYYADSVKGRFTITRDNAKNTVYFQMNSLKPEDTAVYYCAADVVVAGHPGFDYWGQGTQVTVSS,high polyreactivity
12,QVQLVESGGGLVQSGGSLRLSCAASGYIFGVNAMGWYRQAPGKERELVAAIDSGSRTYYADSVKGRFTISRDNAKNTVYLQMNSLIPEDTAVYYCATNFYVSYGGGYYTIWYDYWGQGTQVTVSS,low polyreactivity
13,QVQLVESGGGLVQSGGSLRLSCAASGYIFRFNAMGWYRQAPGKEREMVAVITSGARTYYADSVKGRFTISRDNAKNTVYLQMNSLKPEDTAVYYCNAGARRYLYDYWGHGTQVTVSS,low polyreactivity
14,QVQLVESGGGLVQSGGSLRLSSAAYGNTFFPYTIGRYRQAPGKERELVAAISWNGGTTYYADSVKGRFTISRDNAKNTVYLQMISLKPEDSAVYYCAAPRASGYYWGQGTQVTVSS,high polyreactivity
15,QVQLVESGGGLVQSGGTLRLSWAASGFSFAGNAMGWYRLAPGKERELVAVISKRGGPTYYADSVKGRFTFSRDNAKNTVDLQMNSLKPEDTAVYYCAADSGGPGYAMDYWGQGTEVTVSS,high polyreactivity
16,QVQLVESGGGLVQSVGSLRLSCAASGRSFWINTMGWYRQAPGKERELLAAITSGGSTKYADSVKGRFTISRDNAKNTVYFQMNSLKPEDCAVYYCARRFRPNDVWPSHRGYGYWGQGTQVSVSS,low polyreactivity
17,QVQLVESGGGLVQTGGSLRLSCAASGSIYGEYAMGWYRQSPGKEREFVADITWSDGSTYYADSVKGRFTISRDNAKNTVYLQMNSLKPEDTAVYYCAADSVLDRQVLYLWPWYLGDYWGQGTQVTVSS,low polyreactivity
18,QVQLVESGGGLVQTGGSLRLSCAASGSTFYYYAMGWYRQAPGKERELVAGISWGGGSTYYADSVKGRFTISRDNAKNTVYLQMNSLKPEDTAVYYCNALNPNSYDYWGQGTLVTVSS,low polyreactivity
19,QVQLVESGGGLVQVGGSLRLSCAASGFTFYDYAMGWYRQAPGKERELVAAISRGGSTYYADSVKGRFTISRDNAKNTVYLQINSLIPEDTAVYYCNARPTRIYHGMGYWGQGTQVTVSS,low polyreactivity
20,QVQLVESGGGLVQVGGSLRLSCAASGRTFWWYAMGWYRQAPGKERELVAAISRGSTNYADSVKGRFTISRDNAKNTVYLQMNSLKPEDTAVYYCNAVSLYQSHDYDYWGQGTQVTVSS,low polyreactivity
21,QVQLVESGGGLVRAGGSLRLSCAASGFIFTSYVMGWYRQAPGKERELVAAITSGNSTYYADSVKGRFTISRDNAKNTVYLQMNSLKPEDTAVYYCTADSYHTYYYWYDYWGLGTQVTVSS,low polyreactivity

row,Sequence,polyreactivity (PSR sort gate)
1,QVQLVESGGGLVRAGGSLRLSCAASGRIFHGNAMGWYRQAPGKERELVAAITWGGTRTYYADSVKGRFTISRDNAKNTVYLQMNSLKPEDTAVYYCAKAGTGFYNSWWEDYWGQGTQVTVSS,low polyreactivity
2,QVQLVESGGGRVQAGGSLRLSCAASGSIFTTYTMGWDRQAPGKESEWVAAITSSSGSTYYADSVKGRFTISRDNAKNTVYLQMNSLKPEDTAVYYCAARGYFDFSRYDSWGHGTQVTVSS,low polyreactivity
3,QVQLVESGGGRVQAGGTHRLRSAASGFTFRQYAMGWYRPAPGKERELLAAISRSGSRTYYADSVKRRFTISRDNAKHTVYLQMNCLKPEDTAVYYCYAVFSTFTGEYYWGHGTQVTVSS,high polyreactivity
4,QVQLVESGGGSVQAGGSLRLSCAASGFNFVYYAMGWYRQAPGKERELVAAITWSGGSTYADSVKGRFTISRDNAKNTVYLQMNSLKPEDTAVYYCAAEYDISSGYGFDFDYWGQGTQVTVSS,low polyreactivity
5,QVQLVESGGGVIQAGGSLRLSCAASGRTFYRNTMGWYRQAPGKERELVASISRGGRTNYADSVKGRFTISRDNAKNTVYLQMNSLKREDTAVYYCAKQTSYGGIIRYYASCYGYWGQGTQVTVSS,high polyreactivity
6,QVQLVESGGGVLQAGGSLRLSCAASGRIFYRYPMGWYRKAPGKVRELVAAISGSVGSTYADSVKGRLTISRDNAKNTVYLQMKSMKPEDTAVYYFDRETYRRYGAYDYWGQGTQVTVSS,low polyreactivity
7,QVQLVESGGGVQAGCSLRLSCAASGRTFVPYGMGWYRQAPGKERELVAAISSIGDSTSYADSVKGRFTISRDNAKNTVYLQMNSLKPEDSAVYYCADVTWYDEYDSWGKGTQVTVSS,low polyreactivity
8,QVQLVESGGGVVHAGGSLRLSCAASGLIFRYYAVGGYRPAPGKERELVARISTRGGSTYYADSVKGRFTISRDNAKNTVYLPMNSLKPEDTAVYYCAAVNGLYYHKYGYYWGQGTQVTVSS,high polyreactivity
9,QVQLVESGGGVVQAGGRLRLSCAASGFILGYNDMGWYRPAPGKERELVAAISSSGGSTYYADSVKGRFTISRDNAKNTVYLQMNSLKPEDTAVYYCGLPYQTSYGEYDYWGQGTQVTVSS,low polyreactivity
10,QVQLVESGGGVVQAGGRLRLSCSASGRTFPWYAMGWSRQEPGKEREVVAAITQSGGSTYYADSVKGRFTISRDNANNTVYLQMNSLKPEDTAGFYCAVASVNTVFYGQDHYYYDYGYWGQGTHVTVSS,low polyreactivity
11,QVQLVESGGGVVQAGGSLRLICAATGSIFGYAMGWYRQAPGKERELVGAISFSGVSTYYADSVMGRFTISRDNAKNTVYLEMNSLKPEDTAVYYSNAYSDGDEDYWGQGTQGTVSS,low polyreactivity
12,QVQLVESGGGVVQAGGSLRLRCAASGRTFGQNVMGWYRQAPGKERELVAAISWSGARTYYADSVKGRFTISRDNVKNTVYLQMNSLNPEDTAVYYCNAPPYAYYGMYYWGQGTQVTVSS,high polyreactivity
13,QVQLVESGGGVVQAGGSLRLSCAASGFIFNAYAMGSYRQAPGNERELVAAINTSGGRTNYADSVKGRFTISRDNAKNTVYLQMNSLKPEDTAVYYCAARNRFGGNYWGQGTQVTVSS,high polyreactivity
14,QVQLVESGGGVVQAGGSLRLSCAASGFISKLYAMGWYRQAPGKEREMVAAISSSGTSTYYADSVKGRFTISRDHANNTVYLQMNSLKPEDTAVYYCNARWYVRAYEYDYWGQGTQVTVSS,low polyreactivity
15,QVQLVESGGGVVQAGGSLRLSCAASGFTFGVYAMRGYRQAPGKERELVAAISSRGGSTYYADSVKGRFTISRDNPTNPVYLQMNSLKPEDTAVYYCAKRLGNTVGKDDYWGQGTQVTVSS,low polyreactivity
16,QVQLVESGGGVVQAGGSLRLSCAASGFTYVYNAIGWYRQAPGKDMELVATISWRGGSTYADSVKGRFTISRDNAKNTVYLQINSRKPEDTAIYYCNAASRVSQAMDYWGQGTQVTVSS,high polyreactivity
17,QVQLVESGGGVVQAGGSLRLSCAASGITFGWDAMGWYRQAPGKERELVASISSSGSTNYADSVKGRFTISRDNAKNTVYLQMNSLKPEDTAVYYCNKDYLLRHYYIYVIEGDYWGQGTQVTVSS,low polyreactivity
18,QVQLVESGGGVVQAGGSLRLSCAASGITFRSYLMGWYRQAPGKEREFVAAITGSAGSTYYADSVKGRFTISRDNAKTTVYLQINSLKAEDTAVYYCAARVRYVNPKYYYLGQGTQVTVSS,high polyreactivity
19,QVQLVESGGGVVQAGGSLRLSCAASGITIEANAMGLYRQAPGKERELVAAIDRSGGSKYYADSVKGRFTISRDNAKNTVYLQMNSLKPEDTAVYYCAADGRASVGGLGDDYWGQGTQVTVSS,low polyreactivity
20,QVQLVESGGGVVQAGGSLRLSCAASGRIFDLYAMGWYRQAPGKERELVATISGSGGSTYYADSVKGRFTISRDNAKNTVYLQMNSLKPEDTAVYYCAAVSVSSWYDYWGQGTQVTVSS,low polyreactivity
